This note sets out measurements from publication PMC3991680, “In Vitro Calcite Crystal Morphology Is Modulated by Otoconial Proteins Otolin-1 and Otoconin-90” (PLoS ONE, 2014).

Data set [1] deals with the molecule itself. As to the kind of experiment: atomic force microscopy; 150 nM protein in 500 mM KCl deposited on freshly cleaved mica, incubated 48 hrs, in situ imaging in tapping mode.
Data set [2] concerns the molecule itself. As to the kind of experiment: rotary shadowing electron microscopy; rmOtolin-1 adsorbed on mica, rapid freezing, freeze-drying, rotary shadowing.

B1: recombinant histidine tagged human Otolin-1 (natural protein, UniProt A6NHN0 24-477, looked up)
chain: KTTPHTKFTKKSEEREMPKGLKPSSGPPPEEEETLFTEMAEMAEPITKPSALDSVFGTATLSPFENFTLDPADFFLNCCDCCSPVPGQKGEPGETGQPGPKGEAGNLGIPGPPGVVGPQGPRGYKGEKGLKGERGDQGVPGYPGKPGAQGEPGPKGDKGNIGLGGVKGQKGSKGDTCGNCTKGEKGDQGAMGSPGLHGGPGAKGEKGEMGEKGEMGDKGCCGDSGERGGKGQKGEGGMKGEKGSKGDSGMEGKSGRNGLPGAKGDPGIKGEKGELGPPGLLGPTGPKGDIGNKGVRGPTGKKGSRGFKGSKGELARVPRSAFSAGLSKPFPPPNIPIKFEKILYNDQGNYSPVTGKFNCSIPGTYVFSYHITVRGRPARISLVAQNKKQFKSRETLYGQEIDQASLLVILKLSAGDQVWLEVSKDWNGVYVSAEDDSIFTGFLLYPEETSGISP
notes: Otolin-1, human; OmicsLink Expression-Ready Clone (pReceiver-M77 plasmid, GeneCopoeia) coding for human Otolin-1 with a C-terminal His tag; secreted protein; also called rhOtolin-1; human Otolin-1-His; source: HEK293-F (Freestyle Max 293), transfected; secreted into medium, purified (HisTrap); not shown: His tag, C-terminal, kept
As for B1, the binding result in data set [1] is reported as “binds”.

B2: recombinant mouse Otolin-1-Flag (natural protein, UniProt Q4ZJM7 24-482, looked up)
chain: KTTPYTKFTKKSEGKEMLKGLKPSSGFFLDGEETVHTETAAMAEPTTGSPALAMAESTAGPSASATTRLLPFESFSLDTTGFVLNCCHCCSFVTGQKGEPGKMGKQGPKGETGDTGSPGHPGTTGPQGPKGQKGEKGLKGDRGDQGAGGIPGYPGKPGEQGALGPKGDKGTIGPAGTKGQKGSKGELCGNGTKGEKGDPGASGAHGFIGEPGAKGEKGGVGEKGYRGDLGERGEKGQKGEKGMEGEKGSRGDVGSEGKRGSDGLPGLRGDSGPKGEKGEIGSPGFTGPAGPKGELGSKGVRGPTGKKGSRGVKGSKGEATQVPQSAFSALLSKPFPPPNVPIKFDKILSNDQGDYSPVTGKFNCSVPGTYIFSYHVTVRGRPARISLVARNRKQFKSRETLYGQQVDQASLLLILKLSAGDQVWLEVSKDWNGLYVGPEDDSIFSGFLLYPEETFSKSP
notes: Otolin-1, mouse; cDNA amplified by RT-PCR from E16.5 mouse otocysts with primers from the start ATG to the last codon before the stop (FLAG added before the stop codon); secreted protein; The introduction calls rmOtolin-1 histidine tagged, the methods and results Flag tagged; also called rmOtolin-1; Flag tagged recombinant mouse Otolin-1; source: HEK293-T, stably transfected; not shown: FLAG, …
Take B2: the binding result in data set [2] is reported as “binds”.
